# Data published in article PMC9239266 (mBio, 2022).
# B1: caspase-7 p30 (C186A), ΔN23 (enzyme, human, UniProt P55210 24-303, looked up)
# chain: AKPDRSSFVPSLFSKKKKNVTMRSIKTTRDRVPTYQYNMNFEKLGKCIIINNKNFDKVTGMGVRNGTDKDAEALFKCFRSLGFDVIVYNDCSCAKMQDLLKKASEEDHTNAACFACILLSHGEENVIYGKDGVTPIKDLTAHFRGDRCKTLLEKPKLFFIQAARGTELDDGIQADSGPINDTDANPRYKIPVEADFLFAYSTVPGYYSWRSPGRGSWFVQALCSILEEHGKDLEIMQILTRVNDRVARHFESQSDDPHFHEKKQIPCVVSMLTKELYFSQ
# notes: also called CASP7 p30^C186A; caspase-7 p30 (C/A); source: E. coli BL21(DE3), purified (Ni-Sepharose)
# B2: CopC ΔN50 (recombinant) (domain or fragment)
# chain: AAGKIGAFLRKAVAAQSYGLMFANGKLFEATGDALEKRGQYGFSALQRLDGLSRRNLAAVEARLGALDSAERGLKERIMTGAWHFRHQSNAALDDGKTAAIASNHLLARESRSSGGNTFAGDKALLSNHDFVFFGVEFSGRGKQDKPLNHKHSTMDFGANAYVVPDTLPACRHGYLTLTDHFFNRVPGGREAEHQDFVGSFPQMGAETGRWIHEGKYRQNAPIFNYRDMKAAVALHLIEFLRDSKDAAFKAYVFDQAMQSGQALDRVLNSVFQAEFHIPRLMATTDYAKHPLRPMLLKEAVDSVNLPALSGLVSSKGDAVTAMWHAIDKGKDAVAAHLLGNWRFEAGDFASAPPGFYHELNYALSEHGASVYILDQFLSRGWAAVNAPFEHVNSGETMLDNAVKYGNREMAAALIKHGADRNLLSEWNGGKLDALLA
# notes: also called CopC Δ50; source: E. coli BL21(DE3), purified (glutathione-Sepharose, GST removed by PreScission protease)
# Experiments:
# CopC ΔN50 (recombinant) = target: B2; assay: SEC; settings: both partners purified
# recombinant CaM = target: T1, recombinant CaM (human, UniProt P0DP23 1-149); assay: SEC; settings: both partners purified
# T1 construct: also called calmodulin; Ca^2+-free CaM
Binder,binding result (CopC ΔN50 (recombinant)),binding result (recombinant CaM)
B1,binds,
B2,,binds
